From patent US20240167012

Key:
[1] = target: bovine serum albumin, P02769
[2] = target: T1, gluten immunogenic peptide 26-mer from γ-gliadin
T1 chain: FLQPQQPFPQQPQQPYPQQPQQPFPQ

[3] = target: gliadin
[4] = target: T2, gluten immunogenic peptide 33-mer from α-gliadin
T2 chain: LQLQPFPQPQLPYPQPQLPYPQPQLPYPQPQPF

Chain of bovine serum albumin, P02769 (P02769 25-607): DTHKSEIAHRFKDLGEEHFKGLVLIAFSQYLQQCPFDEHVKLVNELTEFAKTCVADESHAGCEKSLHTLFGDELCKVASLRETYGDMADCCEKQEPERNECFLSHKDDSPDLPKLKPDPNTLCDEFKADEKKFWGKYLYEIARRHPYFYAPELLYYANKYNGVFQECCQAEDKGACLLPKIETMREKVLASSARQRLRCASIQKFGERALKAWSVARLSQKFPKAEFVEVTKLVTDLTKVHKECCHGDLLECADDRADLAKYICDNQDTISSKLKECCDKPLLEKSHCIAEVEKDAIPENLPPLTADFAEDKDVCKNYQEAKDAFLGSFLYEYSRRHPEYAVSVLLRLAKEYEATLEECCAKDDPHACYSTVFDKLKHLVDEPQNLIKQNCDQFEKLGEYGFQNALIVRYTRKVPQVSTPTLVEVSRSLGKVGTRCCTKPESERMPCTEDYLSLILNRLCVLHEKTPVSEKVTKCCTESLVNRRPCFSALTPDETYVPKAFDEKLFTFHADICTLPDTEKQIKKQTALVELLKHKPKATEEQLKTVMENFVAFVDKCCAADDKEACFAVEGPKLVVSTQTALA

B1: aspartic protease Rhodotorulapepsin (protein)
chain: SLTSYQNDNLWAGKITIGSPAQSFIMDFDTGSSDLWVPSSACSGSGCGTHARYTATSSSTSKAVTGKTLNVQYGDGSTASGPVYSDSVTVGGLTATGQTFGTATTLTGNFGSSPSDGLVGMAYPALSQLGVPPFFNTLWSEGRVAANSFSFRLATQNSAASELYLGGLNSAKYVAGTTGYTPVISQTYWAINTNVAVNGQAVSGLGTLAAIADTGTTLIVVPTADAQTFWASVPGAAPYSGGGGYYTFPCNQAPKVTFQFPGSLTKWATPYLNLGTVSYGSNQCVGAIVGQDAGLNAWILGDSFLKGVYTTFDFANNRVGFSKLA
- relative proteolytic activity on BSA at different pH (A280 after TCA) [1]: the maximum proteolytic activity of the aspartic protease Rhodotorulapepsin was found at pH 2.5
- relative proteolytic activity on BSA at different temperatures (A280 after TCA) [1]: the aspartic protease Rhodotorulapepsin still has relative activity of 93% at 40 °C
- hydrolysis of the 26-mer, RP-HPLC (3 h, 37° C.) [2]: the optimal pH value for the hydrolysis reaction of the aspartic protease Rhodotorulapepsin on gluten immunogenic 26-mer is at pH 3.0
- hydrolysis of gliadin 7.5 mg/ml, SDS-PAGE (pH 3.0, 3 h) [3]: even only 250 µg/ml of aspartic protease Rhodotorulapepsin was included in the enzyme mixture, gliadin was completely hydrolyzed
- hydrolysis of gliadin at pH 2.5 to 7.0, R5 ELISA of residual gliadin [3]: the maximum activity of the aspartic protease Rhodotorulapepsin on gliadin was at pH 2.5
- hydrolysis of gliadin, SDS-PAGE [3]: gliadin had been hydrolyzed by the aspartic acid protease Rhodotorulapepsin after 0.5 hours of reaction under all of the three pH conditions of pH2.5, pH3.0, and pH5.0
- hydrolysis of gliadin, SDS-PAGE of residual gliadin (pH 3.0, 37° C., enzyme:gliadin 1:500) [3]: after reaction for 30 minutes, more than 90% of gliadin has been hydrolyzed
- relative activity to hydrolyze gliadin, ELISA of residual gliadin (pH 2.5, 1.5 h, pepsin 1 mg/ml plus Rhodotorulapepsin 0.05 mg/ml) [3]: the relative activity thereof is increased by 54% after adding the aspartic protease Rhodotorulapepsin
- hydrolysis of the 33-mer, RP-HPLC (3 h, 37° C.) [4]: the optimal pH value for the hydrolysis reaction of the aspartic protease Rhodotorulapepsin on gluten immunogenic 33-mer is at pH 5.0
